± gives the uncertainty stated by the source.
Test: self-splicing fitness, log relative to wild type (ln ratio); higher = more splicing; Tetrahymena group I intron in knt gene, E. coli kanamycin selection, DiMSum; sequences stand for … in CUCUCU…GGAGGGAAAAGUUAUCAGGCAUGCACCUGGUAGCUAGUCUUUAAACCAAUAGAUUGCAUCGGUUUAAAAGGCAAGACCGUCAAAUUGCGGGAAAGGGGUCAACAGCCGUUCAGUACCAAGUCUCAGGGGAAACUUUGAGAUGGCCUUGCAAAGGGUAUGGUAAUAAGCUGACGGACAUGGUCCUAACCACGCAGCCAAGUCCUAAGUCAACAGAUCUUCUGUUGAUAUGGAUGCAGUUCACAGACUAAAUGUCGGUCGGGGAAGAUGUAUUCUUCUCAUAAGAUAUAGUCGGACCUCUCCUUAAUGGGAGCUAGCGGAUGAAGUGAUGCAACACUGGAGCCGCUGGGAACUAAUUUGUAUGCGAAAGUAUAUUGAUUAGUUUUGGAGUACUCGUGGUCG
How it was run: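 Pooled colonies went to amplicon sequencing on an Illumina HiSeq 2500 after six replicate transformations. The plates were LB agar with 100 μg/mL carbenicillin, 50 μM IPTG and 0.2% rhamnose, with or without 25 μg/mL kanamycin, incubated overnight at 37°C or 30°C. The E. coli BL21(DE3) library had all eight P1ex-region intron nucleotides randomised, the intron placed in the knt kanamycin-resistance gene on pET-22b(+). DiMSum fitness is the error-weighted combination of replicate fold changes, kanamycin against none, normalised to wild type.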

Row | Sequence | self-splicing fitness (ln) (30 °C) | self-splicing fitness (ln) (37 °C)
1 | UGUGAGCAAUAUUACGGUGC | -3.57 ± 0.25 | -1.77 ± 0.21
2 | UGUGAGCAAUAUUACGUCGG | -2.11 ± 0.2 | -1.35 ± 0.29
3 | UGUGAGCAAUAUUACGUCUU | -2.9 ± 0.29 | -2.27 ± 0.3
4 | UGUGAGCAAUAUUACGUGGU | -3.75 ± 0.23 | -1.88 ± 0.17
5 | UGUGAGCAAUAUUACGUGUC |  | -1.75 ± 0.28
6 | UGUUAGCAAUAUUACGAAAA | -2.39 ± 0.46 | -1.28 ± 0.22
7 | UGUUAGCAAUAUUACGACAC | -3.43 ± 0.47 | -2.08 ± 0.43
8 | UGUUAGCAAUAUUACGACAU | -2.59 ± 0.021 | -1.28 ± 0.035
9 | UGUUAGCAAUAUUACGAGAA | -2.27 ± 0.34 | -1.85 ± 0.38
10 | UGUUAGCAAUAUUACGAGGC | -3.73 ± 0.43 | -2.67 ± 0.38
11 | UGUUAGCAAUAUUACGAUCA | -0.0398 ± 0.15 | 0.805 ± 0.15
12 | UGUUAGCAAUAUUACGAUUG | -0.695 ± 0.084 | -0.795 ± 0.12
13 | UGUUAGCAAUAUUACGCACA | -1.21 ± 0.12 | -0.549 ± 0.11
14 | UGUUAGCAAUAUUACGCGGA | -0.526 ± 0.082 | -0.401 ± 0.087
15 | UGUUAGCAAUAUUACGCGGU | -4.19 ± 0.47 | 
16 | UGUUAGCAAUAUUACGCGUA | -0.809 ± 0.12 | -0.454 ± 0.13
17 | UGUUAGCAAUAUUACGCGUC | -3.45 ± 0.33 | -2.79 ± 0.36
18 | UGUUAGCAAUAUUACGGAAU | -0.534 ± 0.34 | -1.91 ± 0.38
19 | UGUUAGCAAUAUUACGGACU | -0.161 ± 0.079 | 0.414 ± 0.093
20 | UGUUAGCAAUAUUACGGCAU | -3.67 ± 0.32 | -1.95 ± 0.27
21 | UGUUAGCAAUAUUACGGCGC | -2.65 ± 0.21 | -2.22 ± 0.27
22 | UGUUAGCAAUAUUACGGGCA | -0.664 ± 0.16 | 0.194 ± 0.18
23 | UGUUAGCAAUAUUACGGGCC | -1.76 ± 0.18 | -1.6 ± 0.32
24 | UGUUAGCAAUAUUACGGUUU | -2.82 ± 0.15 | -2.02 ± 0.15
25 | UGUUAGCAAUAUUACGUAGG | -2.19 ± 0.11 | -0.461 ± 0.12

Row | Sequence | self-splicing fitness (ln) (30 °C) | self-splicing fitness (ln) (37 °C)
26 | UGUUAGCAAUAUUACGUCCG | -0.342 ± 0.15 | 0.113 ± 0.22
27 | UGUUAGCAAUAUUACGUCUA | -0.124 ± 0.072 | -0.175 ± 0.071
28 | UGUUAGCAAUAUUACGUCUG | -0.698 ± 0.12 | 0.393 ± 0.15
29 | UGUUAGCAAUAUUACGUGAA | -2.38 ± 0.16 | -1.07 ± 0.13
30 | UGUUAGCAAUAUUACGUGCA | -0.172 ± 0.15 | 0.0583 ± 0.19
31 | UGUUAGCAAUAUUACGUGGA | -1.1 ± 0.22 | -1.62 ± 0.15
32 | UUAAAGCAAUAUUACGAAAG | -1.66 ± 0.11 | -1.13 ± 0.17
33 | UUAAAGCAAUAUUACGAACC | -1.34 ± 0.18 | -0.963 ± 0.23
34 | UUAAAGCAAUAUUACGAAGA | -1.19 ± 0.12 | -0.63 ± 0.17
35 | UUAAAGCAAUAUUACGAUAG | -0.00915 ± 0.088 | -0.00163 ± 0.12
36 | UUAAAGCAAUAUUACGCAGA | -0.209 ± 0.11 | -0.133 ± 0.13
37 | UUAAAGCAAUAUUACGCAGG | -0.165 ± 0.12 | -0.592 ± 0.15
38 | UUAAAGCAAUAUUACGCUUG | -0.897 ± 0.096 | 0.0122 ± 0.12
39 | UUAAAGCAAUAUUACGGAAC | -1.08 ± 0.23 | -1.69 ± 0.37
40 | UUAAAGCAAUAUUACGGCAU | -0.866 ± 0.11 | 0.331 ± 0.12
41 | UUAAAGCAAUAUUACGGCUU | -1.44 ± 0.082 | -0.99 ± 0.11
42 | UUAAAGCAAUAUUACGGGGU |  | -2.21 ± 0.3
43 | UUAAAGCAAUAUUACGUACG | 0.121 ± 0.083 | 0.746 ± 0.1
44 | UUAAAGCAAUAUUACGUCGC | -3.09 ± 0.21 | -2.18 ± 0.23
45 | UUAAAGCAAUAUUACGUCUA | 0.0872 ± 0.095 | 0.626 ± 0.11
46 | UUAAAGCAAUAUUACGUCUC | -2.76 ± 0.13 | -1.4 ± 0.13
47 | UUAAAGCAAUAUUACGUGUG | -0.972 ± 0.045 | -0.4 ± 0.06
48 | UUAAAGCAAUAUUACGUUGU | -3.19 ± 0.13 | -1.4 ± 0.13
49 | UUAAAGCAAUAUUACGUUUG | -2.18 ± 0.087 | -0.699 ± 0.093
50 | UUACAGCAAUAUUACGAAAA | -2.35 ± 0.17 | -0.806 ± 0.14

Row | Sequence | self-splicing fitness (ln) (30 °C) | self-splicing fitness (ln) (37 °C)
51 | UUACAGCAAUAUUACGAAGG | -3.54 ± 0.31 | -1.3 ± 0.23
52 | UUACAGCAAUAUUACGACGC | 0.421 ± 0.26 | -1.47 ± 0.36
53 | UUACAGCAAUAUUACGACUA | 0.0835 ± 0.1 | 0.256 ± 0.12
54 | UUACAGCAAUAUUACGACUG | -1.26 ± 0.08 | -1.81 ± 0.12
55 | UUACAGCAAUAUUACGAGAG | -1.48 ± 0.11 | -2.4 ± 0.15
56 | UUACAGCAAUAUUACGAGUU | -4.21 ± 0.21 | -2.18 ± 0.14
57 | UUACAGCAAUAUUACGAUCA | -0.398 ± 0.13 | -0.133 ± 0.17
58 | UUACAGCAAUAUUACGCAGA | -1.84 ± 0.14 | -0.823 ± 0.12
59 | UUACAGCAAUAUUACGCUCG | 0.107 ± 0.086 | 0.283 ± 0.11
60 | UUACAGCAAUAUUACGGCUC | -1.76 ± 0.16 | -0.974 ± 0.16
61 | UUACAGCAAUAUUACGGGAA | -1.78 ± 0.086 | -0.461 ± 0.084
62 | UUACAGCAAUAUUACGGGAC | -4.47 ± 0.33 | -2.07 ± 0.25
63 | UUACAGCAAUAUUACGGUCG | 0.503 ± 0.065 | 0.571 ± 0.087
64 | UUACAGCAAUAUUACGGUGC | -3.23 ± 0.21 | -1.92 ± 0.17
65 | UUACAGCAAUAUUACGUAGC | -3.65 ± 0.3 | -2.92 ± 0.27
66 | UUACAGCAAUAUUACGUGAG | -0.626 ± 0.055 | 0.12 ± 0.092
67 | UUACAGCAAUAUUACGUGCA | -1.27 ± 0.055 | -0.148 ± 0.063
68 | UUACAGCAAUAUUACGUGGG | -2.85 ± 0.11 | -2.43 ± 0.13
69 | UUACAGCAAUAUUACGUGUG | -1.72 ± 0.063 | 0.0664 ± 0.077
70 | UUACAGCAAUAUUACGUUUG | -1.54 ± 0.074 | -1.14 ± 0.094
71 | UUAGAGCAAUAUUACGAUAC | -2.36 ± 0.36 | 
72 | UUAGAGCAAUAUUACGAUUG | -1.95 ± 0.11 | -0.556 ± 0.14
73 | UUAGAGCAAUAUUACGCAAG | -1.18 ± 0.14 | -0.488 ± 0.22
74 | UUAGAGCAAUAUUACGCACG | -0.444 ± 0.17 | -0.183 ± 0.18
75 | UUAGAGCAAUAUUACGCUCG | -1.98 ± 0.23 | 

Row | Sequence | self-splicing fitness (ln) (30 °C) | self-splicing fitness (ln) (37 °C)
76 | UUAGAGCAAUAUUACGCUUC | -2.81 ± 0.32 | 
77 | UUAGAGCAAUAUUACGGCCC | -3.84 ± 0.36 | -1.52 ± 0.32
78 | UUAGAGCAAUAUUACGGUCC | -2.67 ± 0.42 | 
79 | UUAGAGCAAUAUUACGGUGA | -0.868 ± 0.067 | -0.176 ± 0.08
80 | UUAGAGCAAUAUUACGGUUG | -1.98 ± 0.15 | -1.16 ± 0.15
81 | UUAGAGCAAUAUUACGUAGA | -2.18 ± 0.17 | -1.41 ± 0.19
82 | UUAGAGCAAUAUUACGUCGG | -1.11 ± 0.12 | -0.455 ± 0.14
83 | UUAUAGCAAUAUUACGAAAA | -1.95 ± 0.39 | -1.31 ± 0.28
84 | UUAUAGCAAUAUUACGAGAU | -3.27 ± 0.31 | -3.38 ± 0.39
85 | UUAUAGCAAUAUUACGAGUA | -1.68 ± 0.38 | -1.09 ± 0.33
86 | UUAUAGCAAUAUUACGAUCG | -0.934 ± 0.12 | -0.581 ± 0.14
87 | UUAUAGCAAUAUUACGCAAU | -2.86 ± 0.3 | -0.556 ± 0.23
88 | UUAUAGCAAUAUUACGCAUU | -3.19 ± 0.23 | -2.72 ± 0.2
89 | UUAUAGCAAUAUUACGCCCA | -1.57 ± 0.22 | -0.787 ± 0.26
90 | UUAUAGCAAUAUUACGCCUA | -1.55 ± 0.15 | 0.273 ± 0.2
91 | UUAUAGCAAUAUUACGCGCA | -1.06 ± 0.19 | -0.728 ± 0.2
92 | UUAUAGCAAUAUUACGCGUA | -0.829 ± 0.14 | -1.17 ± 0.14
93 | UUAUAGCAAUAUUACGGAAC | -3.09 ± 0.36 | -1.71 ± 0.44
94 | UUAUAGCAAUAUUACGGAGA | -2.04 ± 0.27 | -1.89 ± 0.32
95 | UUAUAGCAAUAUUACGGCCA | -1.18 ± 0.31 | -0.579 ± 0.33
96 | UUAUAGCAAUAUUACGGCUA | -0.836 ± 0.15 | -0.316 ± 0.14
97 | UUAUAGCAAUAUUACGGCUC | -2.3 ± 0.26 | -0.637 ± 0.26
